Values of other authors, collected in paper PMC4115806.

Target: EPCR (Homo sapiens) (UniProt Q9UNN8)
Sequence (Q9UNN8 18-210): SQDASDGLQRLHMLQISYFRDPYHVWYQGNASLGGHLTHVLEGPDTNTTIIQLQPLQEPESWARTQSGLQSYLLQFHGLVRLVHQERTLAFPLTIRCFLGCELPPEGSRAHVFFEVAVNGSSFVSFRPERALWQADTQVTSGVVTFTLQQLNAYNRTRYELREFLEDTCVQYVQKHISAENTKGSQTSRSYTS

Sequence of protein C (P04070 43-197): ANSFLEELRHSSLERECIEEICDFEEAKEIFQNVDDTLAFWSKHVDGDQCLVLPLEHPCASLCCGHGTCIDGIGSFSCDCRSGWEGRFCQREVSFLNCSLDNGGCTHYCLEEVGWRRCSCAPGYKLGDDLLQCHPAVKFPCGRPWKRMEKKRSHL

Kd: 30 nM
Substance: protein C (from UniProt P04070)
